Results as given in patent publication US20220177587A1, “METHODS AND USES OF VARIANT CD80 FUSION PROTEINS AND RELATED CONSTRUCTS” (Alpine Immune Sciences, Inc., priority 2018, published 2022).

Key:
human CTLA-4 (human) [1] = molecular target: human CTLA-4 (human) (UniProt P16410); assay: flow cytometry, CHO cells expressing huCTLA4; MFI ratio to WT CD80 ECD-Fc (R&D)
human PD-L1 (human) [2] = molecular target: human PD-L1 (human) (UniProt Q9NZQ7); assay: flow cytometry, CHO cells expressing huPD-L1; MFI ratio to WT CD80 ECD-Fc (R&D)
human PD-L1 (human) [3] = molecular target: human PD-L1 (human) (UniProt Q9NZQ7); assay: flow cytometry; binding to PD-L1 cells against binding of the same variant to CD28 cells
CD28 (human) [4] = molecular target: CD28 (human) (UniProt P10747); assay: flow cytometry, Jurkat/IL2 reporter cells (endogenous CD28); MFI ratio to WT CD80 ECD-Fc (R&D)
human PD-L1 (human) [5] = molecular target: human PD-L1 (human) (UniProt Q9NZQ7); assay: flow cytometry, CHO cells expressing huPD-L1
CD28 (human) [6] = molecular target: CD28 (human) (UniProt P10747); assay: flow cytometry, Jurkat/IL2 reporter cells (endogenous CD28)
human CTLA-4 (human) [7] = molecular target: human CTLA-4 (human) (UniProt P16410); assay: flow cytometry, CHO cells expressing huCTLA4

human PD-L1 (human), sequence (Q9NZQ7 19-290): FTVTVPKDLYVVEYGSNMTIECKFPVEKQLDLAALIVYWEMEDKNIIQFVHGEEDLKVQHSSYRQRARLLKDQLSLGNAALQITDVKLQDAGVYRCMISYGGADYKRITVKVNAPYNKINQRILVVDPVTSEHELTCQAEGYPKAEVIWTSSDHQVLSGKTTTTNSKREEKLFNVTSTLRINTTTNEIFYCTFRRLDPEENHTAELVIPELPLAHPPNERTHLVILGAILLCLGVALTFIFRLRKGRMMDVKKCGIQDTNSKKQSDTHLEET
human CTLA-4 (human), sequence (P16410 36-223): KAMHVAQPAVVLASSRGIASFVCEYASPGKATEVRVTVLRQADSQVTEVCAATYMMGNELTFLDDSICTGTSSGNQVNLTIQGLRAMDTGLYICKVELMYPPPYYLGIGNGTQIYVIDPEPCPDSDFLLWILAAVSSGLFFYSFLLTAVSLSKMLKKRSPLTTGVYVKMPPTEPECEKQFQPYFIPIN

| Binder | Fold change to WT CD80 (human CTLA-4 (human) [1]) | Fold change to WT (human PD-L1 (human) [2]) | Ratio of PDL1:CD28 (human PD-L1 (human) [3]) | Fold change to WT (CD28 (human) [4]) | MFI at 33.3 nM (human PD-L1 (human) [5]) | MFI at 33.3 nM (CD28 (human) [6]) | MFI at 33.3 nM (human CTLA-4 (human) [7]) |
| --- | --- | --- | --- | --- | --- | --- | --- |
| variant CD80 IgV-Fc A26E/Q33R/E35D/M47L/L85Q/K86E (Fc fusion) VIHVTKEVKEVATLSCGHNVSVEELEQTRIYWRKDKKMVLTMMSGDLNIWPEYKNRTIFDITNNLSIVILALRPSDEGTYECVVQEYEKDAFKREHLAEVTLSVKAD | 0.01 fold | 9.56 fold | 276 | 0.04 fold | 76000 MFI | 275 MFI | 1280 MFI |
| variant CD80 IgV-Fc A26E/Q33L/E35D/M47L/L85Q (Fc fusion) VIHVTKEVKEVATLSCGHNVSVEELEQTRIYWLKDKKMVLTMMSGDLNIWPEYKNRTIFDITNNLSIVILALRPSDEGTYECVVQKYEKDAFKREHLAEVTLSVKAD | 0.01 fold | 7.89 fold | 229 | 0.04 fold | 62700 MFI | 274 MFI | 1170 MFI |
| variant CD80 IgV-Fc E7D/E35D/M47I/L97Q (Fc fusion) VIHVTKDVKEVATLSCGHNVSVEELAQTRIYWQKDKKMVLTMMSGDINIWPEYKNRTIFDITNNLSIVILALRPSDEGTYECVVLKYEKDAFKREHQAEVTLSVKAD | 1.52 fold | 1.84 fold | 54 | 0.04 fold | 14600 MFI | 273 MFI | 271000 MFI |
| variant CD80 IgV-Fc A26E/Q33R/E35D/M47L/L85Q (Fc fusion) VIHVTKEVKEVATLSCGHNVSVEELEQTRIYWRKDKKMVLTMMSGDLNIWPEYKNRTIFDITNNLSIVILALRPSDEGTYECVVQKYEKDAFKREHLAEVTLSVKAD | 0.01 fold | 10.3 fold | 309 | 0.03 fold | 81500 MFI | 264 MFI | 1280 MFI |
| variant CD80 IgV-Fc A26E/E35D/M43T/M47L/L85Q/R94Q (Fc fusion) VIHVTKEVKEVATLSCGHNVSVEELEQTRIYWQKDKKMVLTMTSGDLNIWPEYKNRTIFDITNNLSIVILALRPSDEGTYECVVQKYEKDAFKQEHLAEVTLSVKAD | 1.56 fold | 8.57 fold | 262 | 0.03 fold | 68100 MFI | 260 MFI | 278000 MFI |
| variant CD80 IgV-Fc A26E/Q33L/E35D/M47L (Fc fusion) VIHVTKEVKEVATLSCGHNVSVEELEQTRIYWLKDKKMVLTMMSGDLNIWPEYKNRTIFDITNNLSIVILALRPSDEGTYECVVLKYEKDAFKREHLAEVTLSVKAD | 0.01 fold | 7.67 fold | 225 | 0.04 fold | 60900 MFI | 271 MFI | 1320 MFI |
| variant CD80 IgV-Fc Q33L/E35D/M47I (Fc fusion) VIHVTKEVKEVATLSCGHNVSVEELAQTRIYWLKDKKMVLTMMSGDINIWPEYKNRTIFDITNNLSIVILALRPSDEGTYECVVLKYEKDAFKREHLAEVTLSVKAD | 0.09 fold | 4.7 fold | 132 | 0.04 fold | 37400 MFI | 282 MFI | 15900 MFI |
| variant CD80 IgV-Fc H18Y/Q33L/E35D/M47I (Fc fusion) VIHVTKEVKEVATLSCGYNVSVEELAQTRIYWLKDKKMVLTMMSGDINIWPEYKNRTIFDITNNLSIVILALRPSDEGTYECVVLKYEKDAFKREHLAEVTLSVKAD | 0.03 fold | 6.02 fold | 162 | 0.04 fold | 47800 MFI | 295 MFI | 5540 MFI |
| variant CD80 IgV-Fc H18Y/E35D/M47L (Fc fusion) VIHVTKEVKEVATLSCGYNVSVEELAQTRIYWQKDKKMVLTMMSGDLNIWPEYKNRTIFDITNNLSIVILALRPSDEGTYECVVLKYEKDAFKREHLAEVTLSVKAD | 1.59 fold | 5.56 fold | 9 | 0.66 fold | 44200 MFI | 5070 MFI | 284000 MFI |
| variant CD80 IgV-Fc H18Y/A26E/Q33L/E35D/M47L/L85Q (Fc fusion) VIHVTKEVKEVATLSCGYNVSVEELEQTRIYWLKDKKMVLTMMSGDLNIWPEYKNRTIFDITNNLSIVILALRPSDEGTYECVVQKYEKDAFKREHLAEVTLSVKAD | 0.01 fold | 9.64 fold | 282 | 0.04 fold | 76600 MFI | 272 MFI | 2090 MFI |

The remaining lines, values ahead:

| Fold change to WT CD80 (human CTLA-4 (human) [1]) | Fold change to WT (human PD-L1 (human) [2]) | Ratio of PDL1:CD28 (human PD-L1 (human) [3]) | Fold change to WT (CD28 (human) [4]) | MFI at 33.3 nM (human PD-L1 (human) [5]) | MFI at 33.3 nM (CD28 (human) [6]) | MFI at 33.3 nM (human CTLA-4 (human) [7]) | Binder |
| --- | --- | --- | --- | --- | --- | --- | --- |
| 0.04 fold | 5.66 fold | 104 | 0.06 fold | 44900 MFI | 433 MFI | 6390 MFI | variant CD80 IgV-Fc Q33L/E35D/T41S/M43I (Fc fusion) VIHVTKEVKEVATLSCGHNVSVEELAQTRIYWLKDKKMVLSMISGDMNIWPEYKNRTIFDITNNLSIVILALRPSDEGTYECVVLKYEKDAFKREHLAEVTLSVKAD |
| 0.42 fold | 5.97 fold | 177 | 0.04 fold | 47400 MFI | 268 MFI | 75400 MFI | variant CD80 IgV-Fc Q33L/E35D/M47V/L85Q (Fc fusion) VIHVTKEVKEVATLSCGHNVSVEELAQTRIYWLKDKKMVLTMMSGDVNIWPEYKNRTIFDITNNLSIVILALRPSDEGTYECVVQKYEKDAFKREHLAEVTLSVKAD |
| 0.08 fold | 5.52 fold | 153 | 0.04 fold | 43800 MFI | 287 MFI | 14500 MFI | variant CD80 IgV-Fc Q33L/E35D/T41S/M47V (Fc fusion) VIHVTKEVKEVATLSCGHNVSVEELAQTRIYWLKDKKMVLSMMSGDVNIWPEYKNRTIFDITNNLSIVILALRPSDEGTYECVVLKYEKDAFKREHLAEVTLSVKAD |
| 0.01 fold | 9.14 fold | 256 | 0.04 fold | 72600 MFI | 284 MFI | 1660 MFI | variant CD80 IgV-Fc Q33L/E35D/M47I/T62N/L85Q (Fc fusion) VIHVTKEVKEVATLSCGHNVSVEELAQTRIYWLKDKKMVLTMMSGDINIWPEYKNRTIFDINNNLSIVILALRPSDEGTYECVVQKYEKDAFKREHLAEVTLSVKAD |
| 0.02 fold | 9.51 fold | 275 | 0.04 fold | 75500 MFI | 274 MFI | 3640 MFI | variant CD80 IgV-Fc V22A/E23D/Q33L/E35D/M47V (Fc fusion) VIHVTKEVKEVATLSCGHNVSADELAQTRIYWLKDKKMVLTMMSGDVNIWPEYKNRTIFDITNNLSIVILALRPSDEGTYECVVLKYEKDAFKREHLAEVTLSVKAD |
| 0.11 fold | 8.05 fold | 222 | 0.04 fold | 63900 MFI | 287 MFI | 20500 MFI | variant CD80 IgV-Fc Q33L/E35D/M47I/L85Q (Fc fusion) VIHVTKEVKEVATLSCGHNVSVEELAQTRIYWLKDKKMVLTMMSGDINIWPEYKNRTIFDITNNLSIVILALRPSDEGTYECVVQKYEKDAFKREHLAEVTLSVKAD |
